Measurements taken from the RNAGym collection of RNA variant scans (doi:10.1073/pnas.2313332121).

B1: TPR t1 (parent)
chain: GACCAAUCUGCCCUCAGAGCUCGAGAACAUCUUCGGAUGCAGAGGAGGCAGGCUUCGGUGGCGCGAUAGCGCCAACGUCCUCAACCUCCAAUGCAUCCCACCACAUGAUGAUGCCUGAAGAGCCUUGGUUUUUUG

Variants of: B1
Experiment: polymerase ribozyme fitness, log enrichment relative to wild type (log ratio); higher = more active; in vitro selection for triplet polymerase activity
Method in brief: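 After PCR construction and transcription, each subunit's mutant library from a heterodimeric triplet polymerase ribozyme was annealed with a biotinylated primer, the partner subunit and triplets. Incubation was frozen, at −7 °C, and extended constructs were gel-excised, bound to streptavidin beads and amplified by RT-PCR, in one selection round done in triplicate. Fitness is the logarithm of a genotype's enrichment divided by that of the wild type, from inverse-variance-weighted replicate averages of Illumina-sequenced inputs and outputs. The base of the logarithm is 2, and genotypes needed ≥10 input reads and ≥1 read per output.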

Variant | polymerase ribozyme fitness (log ratio)
A2C G36C C62U | -2.66
A2U G10C G71U A121C | -1.06
A2C G39C G69U U112C | -0.882
A2G G36A C49G A84C C123A U126G | -2.7
A2C A37U G48A U54A C73A C79G A119U G128U | -5.61
A2G C4A U7C G47C C56A A68G C99A G110U C115G G117C U129A | -7.47
A2U A41G U55A C72A | -2.61
A2U G19A | -4.15
A2U G71C C101U G127U | -2.85
A2U C8G G36U G45A C102U G120A G127C | -4.41
A2G G61C C88U C124A | -0.51
A2C U109G C114U U129G | -5.24
A2U C70U | -2.28
A2C G36A U54C | -2.04
A2U U38G C70U C98U G128U | -6.66
A2U U54C U112G G113A U133A | -2.96
A2C C11G G17U G51C U55C C56G | -4.03
A2U G52U C53A G63U U132C | -2.74
A2C C13A C72U | -4.81
A2G U32C C40G C49A A68G C73U | -5.24
A2U C8U G45A A95G G120A | -0.217

Variant | polymerase ribozyme fitness (log ratio)
A2C A27G A29U G77A G113A C124G | -3.05
A2G G57A G61A G117U | -3.55
A2G C12A C15U G45U U106A | -3.92
A2G C13U A46U C62A C86A G113U G120U C123G | -6.73
A2G G93A G120U | -0.278
A2C C3G A90G | -3.04
A2C C12A C104U | -1.93
A2C U7C C15U C72U A105U | -3.49
A2C C49G | -2.18
A2G A29G G120A C123G | -0.383
A2U A50U A95C C124A U125A | -2.49
A2C G39U A41C C56G C101A C123G | -4.81
A2C G61C | -3.02
A2G C15U A43U G45U C56U C62U | -6.15
A2C U21G C72A G77U | -4.23
A2C C4U G36U C104U | -2.28
A2G | -0.0197
A2U | -2.07
A2C | -1.4
A2U G63A | -2.23
A2U G63C | -3.13

Variant | polymerase ribozyme fitness (log ratio)
A2G C13U C53G C72G | -0.413
A2U G61U | -1.84
A2U G61A | -2.17
A2U C12A G19A U30G C56A U112A C114G | -7.24
A2U C8A A100U | -1.86
A2C G120U C124A U131G | -1.15
A2G A50U G57C G60C C85G G113A | -2.81
A2U C89A C115A | -3.43
A2G C13G A37U C49A C53A A100G C114A C124A | -7.24
A2G G52A C85U | -1.87
A2C C76U U126A | -1.99
A2U A6U G57U G120C | -4.53
A2G U9G C56U C88A | -1.54
A2U C64U C124U | -1.49
A2G G71A | -0.784
A2U A6U G120A | 0.00399
A2G C72U | 0.0702
A2G A6C C56U | 0.182
A2U C88A A121U | -0.332
A2U C11U | -2.95
A2G C86G U126C | -2.8

Variant | polymerase ribozyme fitness (log ratio)
A2G C62A C85A | -3.14
A2U C11U G63U C101G G113U C115U | -6.67
A2U A6U C13U C20U G57A C82G | -4.79
A2U A100U | -3.18
A2U A5G G60C | -4
A2U U106A | -1.89
A2C U54A C72G C104U G113A | -2.82
A2G G17A | -2.9
A2U C12U U78C U87G U112G | -3.07
A2C G69A C101U C104U G113A G127C U129C | -5.09
A2G C73U G113A C114G A119U U126G | -5.02
A2G C8G C22U | -5.08
A2U A5U C8A C79G C115G | -5.43
A2U A50C C70U C101U | -3.18
A2U G19U C70U A121G | -4.27
A2G C49U C79A C86G | -2.96
A2C U59A G122A | -2.15
A2G C40A C89U | -1.58
A2U C11U C97G G110C C114U G120C | -6.26
A2G U38G G42U C115U | -3.06
A2G G47A C72G | -0.743
